Test results: patent publication US20070196376A1 (AstraZeneca / MedImmune, published 2007)

Key:
[1] = biological target: T1, human insulin-like growth factor-II (IGF-II) (human, UniProt P01344 25-91); experiment: cell-based or functional assay
[2] = biological target: T2, human insulin-like growth factor-I (IGF-I) (human, UniProt P05019 49-118); experiment: cell-based or functional assay
[3] = biological target: T2, human insulin-like growth factor-I …; experiment: Biacore low-resolution screen, mAb captured, IGF-I injected
[4] = biological target: T1, human insulin-like growth factor-II …; experiment: cell-based or functional assay; remark: listed apart in the source
[5] = biological target: T2, human insulin-like growth factor-I …; experiment: cell-based or functional assay; remark: listed apart in the source
[6] = biological target: T1, human insulin-like growth factor-II …; experiment: cell-based or functional assay; remark: listed apart in the source
[7] = biological target: T1, human insulin-like growth factor-II …; experiment: Biacore low-resolution screen, mAb captured, IGF-II injected
[8] = biological target: T1, human insulin-like growth factor-II …; experiment: cell-based or functional assay; remark: listed apart in the source
[9] = biological target: T2, human insulin-like growth factor-I …; experiment: cell-based or functional assay; remark: listed apart in the source
[10] = biological target: T3, Recombinant human IGF-I (insulin-like growth factor-I) (human, UniProt P05019 49-118); experiment: limited antigen ELISA, supernatant 1:25
T3 construct: Bought; also called IGF1; IGF-1

[11] = biological target: T4, Recombinant human IGF-II (insulin-like growth factor-II) (human, UniProt P01344 25-91); experiment: limited antigen ELISA, supernatant 1:25
T4 construct: Bought; also called IGF2; IGF-2

[12] = biological target: T5, human insulin (human, UniProt P01308 25-54; P01308 90-110, limits assumed); experiment: Biacore, mAb on CM5 chip, insulin injected
T5 construct: The mature hormone has an A and a B chain cut from the precursor; also called recombinant insulin; hu-Insulin

B1: mAb 7.158.2 (antibody, V domains shown)
VH: QLQLQESGPGLVKPSETLSLTCTVSGGSIRSSSYYWGWIRQPPGKGLEWIGGIYYSGSTYYNPSLKSRVTMSVDTSKNQFSLKLSSVTAADTAVYYCARQRGHSSGWWYFDLWGRGTLVTVSS
VL: DIQMTQSPSSVSASVGDSVTITCRASQGISSYLAWYQQKPGKAPKLLIYAASSLQSGVPSRFSGNGSGTDFTLTISSLQPEDFATYYCQQANNFPFTFGPGTKVDIKR
notes: Kappa light chain (L5/JK3); also called 7.158.1; 7_158_1
% Inhibition, mean (n = 2), IGF-II Proliferation Assay, NIH3T3/hIGF-IR cells [1]: 54.6% | EC50 (nM), mean (n = 2), IGF-II Proliferation Assay, NIH3T3/hIGF-IR cells [1]: 36 nM | % Inhibition, mean (n = 3), IGF-I Proliferation Assay, NIH3T3/hIGF-IR cells [2]: 57.4% | EC50 (nM), mean (n = 3), IGF-I Proliferation Assay, NIH3T3/hIGF-IR cells [2]: 42.8 nM | Kd [3]: 0.5 nM | koff [3]: 0.0022 s⁻¹ | kon [3]: 4.4e+06 M⁻¹ s⁻¹ | EC50 (nM), n = 2, IGF-II pTYR, BxPC3 cells [4]: 4.2 nM | Max % Inhibition (133.3 nM), n = 2, IGF-II pTYR, BxPC3 cells [4]: 74% | Max % Inhibition (333.3 nM), n = 1, IGF-II pTYR, BxPC3 cells [4]: 92.4% | EC50 (nM), n = 1, IGF-I pTYR, BxPC3 cells [5]: 4.5 nM | EC50 (nM), n = 2, IGF-I pTYR, BxPC3 cells [5]: 3.6 nM | Max % Inhibition (333.3 nM), n = 1, IGF-I pTYR, BxPC3 cells [5]: 92.9% | Max % Inhibition (333.3 nM), n = 2, IGF-I pTYR, BxPC3 cells [5]: 89.4% | EC50 (nM), n = 1, IGF-II Proliferation, BxPC3 cells [6]: 0.0013 nM | Max % Inhibition (133.3 nM), n = 2, IGF-II Proliferation, BxPC3 cells [6]: 148% | Max % Inhibition (333.3 nM), n = 1, IGF-II Proliferation, BxPC3 cells [6]: 86.3% | Kd [7]: 0.197 nM | koff [7]: 0.00067 s⁻¹ | kon [7]: 3.4e+06 M⁻¹ s⁻¹ | % MAX Activation, mean (n = 2), IGF-II pTYR of hIGF-IR in NIH3T3 cells [8]: 33.7% | EC50 (nM), mean (n = 2), IGF-II pTYR of hIGF-IR in NIH3T3 cells [8]: 11.3 nM | % MAX Activation, mean (n = 2), IGF-I pTYR of hIGF-IR in NIH3T3 cells [9]: 22.7% | EC50 (nM), mean (n = 2), IGF-I pTYR of hIGF-IR in NIH3T3 cells [9]: 28.3 nM

B2: mAb 7.158.2 (antibody, V domains shown)
VH: QLQLQESGPGLVKPSETLSLTCTVSGGSIRSSSYYWGWIRQPPGKGLEWIGGIYYSGSTYYNPSLKSRVTMSVDTSKNQFSLKLSSVTAADTAVYYCARQRGHSSGWWYFDLWGRGTLVTVSS
VL: DIQMTQSPSSVSASVGDSVTITCRASQGISSYLAWYQQKPGKAPKLLIYAASSLQSGVPSRFSGNGSGTDFTLTISSLQPEDFATYYCQQANNFPFTFGPGTKVDIKR
notes: also called 7.158.1; 7_158_1
LA OD, IGF1 2 ng/ml [10]: 1.71 OD 450 nm | LA OD, IGF1 4 ng/ml [10]: 3 OD 450 nm | LA OD, IGF2 2 ng/ml [11]: 1.42 OD 450 nm | LA OD, IGF2 4 ng/ml [11]: 2.46 OD 450 nm

B3: mAb 7.234.2 (antibody, V domains shown)
VH: QLQLQESGPGLVKPSETLSLTCTVSGGSINSSSNYWGWIRQPPGKGLAWIGGIYYSGSTYYNPSLRSRVTMSVDTSKNQFSLKLSSVTAADTAVYYCARQRGHSSGWWYFDLWGRGTLVTVSS
VL: DIQMTQSPSSVSASVGDRVTITCRASRGISSWLAWYQQRPGKAPKLLIYTASSLQSGVPSRFSGSGSGTDFTLTISSLQPEDFATYYCQQANSFPFTFGPGTKVDIKR
notes: also called 7.234.1; 7_234_1
LA OD, IGF1 2 ng/ml [10]: 0.7 OD 450 nm | LA OD, IGF1 4 ng/ml [10]: 1.79 OD 450 nm | LA OD, IGF2 2 ng/ml [11]: 1.4 OD 450 nm | LA OD, IGF2 4 ng/ml [11]: 2.44 OD 450 nm | binding result [12]: no binding (tested: 502 nM)
